B1: recombinant chimeric 11-8A1 (variable region of 11-8A1 + constant region of human IgG4) (antibody, V domains shown)
VH: EVQLQQSGADLVRPGASVKLSCTTSGFNIKDTYVHWVKQRPEQGLEWIGRIDPANGLTTFDPRFQAKATITADTSSNTAYLQLSSLTSEDTAVYYCTYAMEYWGQGTSVTVSS
VL: QIVLTQSPAIMSASPGERVTMTCSARSDVSYMYWYQQKPGSSPRLLIYDTSNLASGVPVRFSASGSGTSYSLTISRMEAEDAATYYCQQWSSYPPWTFGGGTKLEIK
B2: mAb 11-8A1 (hybridoma-derived murine anti-human factor D monoclonal antibody) (antibody, V domains shown)
VH: B1 VH
VL: QIVLTQSPAIMSASPGERVTMTCSARSDVSYMYWYQQKPGSSPRLLIYDTSNLASGVPVRFSASGSGTSYSLTISRMEAEDAATYYCQQWSSYPPWTFGGGTKLEIKR

Target: purified human factor D (from human plasma) (human, UniProt P00746 26-253)
Sequence (P00746 26-253): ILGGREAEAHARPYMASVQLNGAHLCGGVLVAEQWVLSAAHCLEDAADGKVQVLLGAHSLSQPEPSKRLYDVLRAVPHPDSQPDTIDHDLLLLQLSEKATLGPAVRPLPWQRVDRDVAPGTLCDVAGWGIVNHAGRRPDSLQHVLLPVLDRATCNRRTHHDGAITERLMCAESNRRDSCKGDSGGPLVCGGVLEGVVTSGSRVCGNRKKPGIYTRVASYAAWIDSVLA
Assay: Biacore SPR

Row | Binder | Kd
1 | B1 | 0.153 nM
2 | B2 | 0.148 nM
